Reference: IntAct's records for PubMed 21037566

Target: lef_bacan lef (UniProt P15917)

Row | Substance | effect of a mutation on the interaction
1 | Protective antigen (Bacillus anthracis) (from UniProt P13423) H240A | disrupting interaction
2 | Protective antigen (Bacillus anthracis) (from UniProt P13423) L216A | disrupting interaction
